From US20240174741A1 (IMMUNOME, published 2024) come the findings set out here.

One experiment addresses T1, IL-1α (human, UniProt P01583 1-271, limits assumed).
T1 sequence (looked up): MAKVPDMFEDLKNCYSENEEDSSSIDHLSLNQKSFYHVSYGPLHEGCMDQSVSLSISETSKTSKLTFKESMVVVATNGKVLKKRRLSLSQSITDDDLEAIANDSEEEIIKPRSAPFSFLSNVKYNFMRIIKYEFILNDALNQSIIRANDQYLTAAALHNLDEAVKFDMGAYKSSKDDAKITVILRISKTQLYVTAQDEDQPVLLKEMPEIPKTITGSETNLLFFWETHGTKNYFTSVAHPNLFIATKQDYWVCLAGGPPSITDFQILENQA
Nature of the experiment: CDI HuProt native protein microarray. As for the experimental part: (§1) To confirm specificity to IL-38, several lead candidate antibodies (CD1-M3, CD1-M8, NZB-M8) were analyzed in a High-Spec Cross-reactivity Assay using native HuProt arrays (CDI Laboratories). […] of antibody was incubated overnight in a cold room, washed, and probed with anti-human secondary antibodies. Fluorescence intensity (F635) as an indicator of binding was measured for each spot. CDI software quantified the specificity of the antibody to each spot based on a Z-score. Z-score is defined as [F635−(Average F635 on array)]/(Standard deviation of F635 on array). S-score is defined as the difference between the Z-score of a given protein and the Z-score of the next highest protein.

A further experiment deals with IL-1β (human, UniProt P01584 1-269, limits assumed). Put plainly: CDI HuProt native protein microarray. As for the experimental part:
as §1

The target in experiment [1] is T2, IL-1Ra (human, UniProt P18510 26-177, limits assumed). Nature of the experiment: CDI HuProt native protein microarray. The procedure: as §1
In another experiment the target is T3, IL-18 (human, UniProt Q14116 1-193, limits assumed).
T3 sequence (looked up): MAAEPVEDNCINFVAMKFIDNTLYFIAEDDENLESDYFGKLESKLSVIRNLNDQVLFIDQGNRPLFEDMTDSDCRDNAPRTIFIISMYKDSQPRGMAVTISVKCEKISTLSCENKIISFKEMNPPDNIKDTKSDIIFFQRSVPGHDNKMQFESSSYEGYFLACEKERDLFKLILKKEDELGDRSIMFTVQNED
Nature of the experiment: CDI HuProt native protein microarray. The procedure:
as §1

A further experiment addresses T4, IL-36Ra (human, UniProt Q9UBH0 1-155, limits assumed).
T4 sequence (looked up): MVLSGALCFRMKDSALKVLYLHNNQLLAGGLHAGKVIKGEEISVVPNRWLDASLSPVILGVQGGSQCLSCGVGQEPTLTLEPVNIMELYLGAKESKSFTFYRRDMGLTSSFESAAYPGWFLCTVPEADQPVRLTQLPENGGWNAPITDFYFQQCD
Nature of the experiment: CDI HuProt native protein microarray. The procedure:
as §1

Another experiment concerns the target T5, IL-36a (human, UniProt Q9UHA7 1-158, limits assumed).
T5 sequence (looked up): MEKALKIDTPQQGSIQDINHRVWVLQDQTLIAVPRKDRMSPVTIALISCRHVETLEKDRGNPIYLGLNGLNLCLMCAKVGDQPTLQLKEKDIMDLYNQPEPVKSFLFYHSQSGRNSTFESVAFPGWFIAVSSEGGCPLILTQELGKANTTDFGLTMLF
Put plainly: CDI HuProt native protein microarray. The procedure: as §1

The target in another experiment is T6, IL-37 (human, UniProt Q9NZH6 1-218, limits assumed).
T6 sequence (looked up): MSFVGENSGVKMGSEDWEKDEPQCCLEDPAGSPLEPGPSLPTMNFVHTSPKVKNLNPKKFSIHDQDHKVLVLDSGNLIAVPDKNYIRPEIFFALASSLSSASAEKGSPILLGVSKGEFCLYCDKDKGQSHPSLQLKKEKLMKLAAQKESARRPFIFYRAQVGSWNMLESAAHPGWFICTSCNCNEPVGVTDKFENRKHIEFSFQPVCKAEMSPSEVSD
Put plainly: CDI HuProt native protein microarray. As for the experimental part:
as §1

Experiment [2] has as its target T7, IL-36b (human, UniProt Q9NZH7 1-164, limits assumed).
T7 sequence (looked up): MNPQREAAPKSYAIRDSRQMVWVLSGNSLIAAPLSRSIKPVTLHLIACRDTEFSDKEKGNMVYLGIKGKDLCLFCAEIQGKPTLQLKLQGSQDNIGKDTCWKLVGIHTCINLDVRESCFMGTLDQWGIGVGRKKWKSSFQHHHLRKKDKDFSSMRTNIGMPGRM
Put plainly: CDI HuProt native protein microarray. As for the experimental part:
as §1

The next experiment addresses T8, IL-36g (human, UniProt Q9NZH8 1-169, limits assumed).
T8 sequence (looked up): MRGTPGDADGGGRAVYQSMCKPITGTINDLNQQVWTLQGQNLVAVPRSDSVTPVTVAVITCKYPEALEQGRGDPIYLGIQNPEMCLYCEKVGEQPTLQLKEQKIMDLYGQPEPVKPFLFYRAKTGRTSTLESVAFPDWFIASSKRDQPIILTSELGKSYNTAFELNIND
Nature of the experiment: CDI HuProt native protein microarray. The procedure: as §1

In a further experiment the target is T9, IL-33 (human, UniProt O95760 1-270, limits assumed).
T9 sequence (looked up): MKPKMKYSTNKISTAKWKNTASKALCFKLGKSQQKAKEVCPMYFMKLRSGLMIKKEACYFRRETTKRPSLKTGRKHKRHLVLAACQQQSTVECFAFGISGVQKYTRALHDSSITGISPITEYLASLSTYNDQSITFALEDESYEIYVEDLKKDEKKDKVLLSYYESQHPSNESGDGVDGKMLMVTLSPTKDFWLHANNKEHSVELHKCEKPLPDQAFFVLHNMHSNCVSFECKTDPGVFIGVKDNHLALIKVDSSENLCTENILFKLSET
Nature of the experiment: CDI HuProt native protein microarray. As for the experimental part:
as §1

Experiment [3] concerns the target T2, IL-1Ra. Put plainly: CDI HuProt native protein microarray, IL-1 family members. As for the experimental part: as §1
Experiment [4] has as its target T7, IL-36b. Described as above. The procedure: as §1

T2 sequence (P18510 26-177 limits assumed): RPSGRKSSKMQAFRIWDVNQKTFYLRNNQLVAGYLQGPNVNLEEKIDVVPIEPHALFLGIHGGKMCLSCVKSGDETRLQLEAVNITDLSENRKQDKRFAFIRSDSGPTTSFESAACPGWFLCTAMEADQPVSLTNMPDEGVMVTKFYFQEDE

B1: CD1-M3 (antibody, V domains shown)
VH: EVQLQQSGPELVKPGASVKIPCKASGYTFTDYNMDWVKQSHGKSLEWIGDINPNNGGTIYNQKFKGKATLTVDKSSSTAYMELRSLTSEDTAVYYCSRPYYGYFAYWGQGTLVTVSA
VL: DVVMTQSPLSLPVSLGDQASISCRSSQSLVHSHENTFLHWYLQKPGQSPKLLIYRVSNRFSGVPDRFSGSGSGTDFTLKISRVEAEDLGVYFCSQSTHVPLTFGAGTKLELK
notes: Mouse monoclonal from a hybridoma of a CD-1 mouse immunized with full length recombinant IL-38
As for B1, the binding result with IL-1α, in the experiment with IL-1β, in the experiment with IL-1Ra [1], with IL-18, with IL-36Ra and in the experiment with IL-36a was “no binding” in each case. Also, the binding result in the experiment with IL-37, with IL-36b [2], with IL-36g and with IL-33 was “no binding” each time. The Z-score was -0.013 with IL-1Ra [3] and -0.016 with IL-36b [4].
